Assay [1] deals with human L-selectin (human) (UniProt P14151). The assay can be described thus: cell-based or functional assay.
Assay [2] has as its target CD34 (human) (UniProt P28906). The assay can be described thus: cell-based or functional assay.

The values that follow come from patent US20210139932A1.

Chain of UniProt P28906 (P28906 32-385): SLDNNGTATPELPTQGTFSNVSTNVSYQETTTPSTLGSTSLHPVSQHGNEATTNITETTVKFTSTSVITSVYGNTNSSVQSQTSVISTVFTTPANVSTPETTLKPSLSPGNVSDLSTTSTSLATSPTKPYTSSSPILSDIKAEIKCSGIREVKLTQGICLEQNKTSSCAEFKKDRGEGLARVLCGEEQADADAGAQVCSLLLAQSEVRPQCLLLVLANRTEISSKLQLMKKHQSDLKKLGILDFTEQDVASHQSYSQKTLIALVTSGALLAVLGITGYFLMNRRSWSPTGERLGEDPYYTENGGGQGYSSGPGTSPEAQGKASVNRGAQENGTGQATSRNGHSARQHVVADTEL

Regarding “anti-human L-selectin antibody (clone DREG56; Thermo Fisher)”, in assay [1], the reduction of the L-selectin enhanced amount of CD34+ transduction worked out at 79%.

Consider “human L-selectin (from UniProt P14151 39-372) (ligand)”, for which the transduction of cytokine-stimulated CD34+ cells (% eGFP+ cells) in assay [2] is 2 fold.
